Drawing on paper PMC6821020, “Arabidopsis thaliana alternative dehydrogenases: a potential therapy for mitochondrial complex I deficiency? Perspectives and pitfalls” (Orphanet Journal of Rare Diseases, 2019), this text covers Km for one protein.

Substrate in this data set: NC(=O)C1=CN([C@@H]2O[C@H](COP(=O)(O)OP(=O)(O)OC[C@H]3O[C@@H](n4cnc5c(N)ncnc54)[C@H](O)[C@@H]3O)[C@@H](O)[C@H]2O)C=CC1
In words: cells, lysate or membranes. The class given is biochemical, Arabidopsis thaliana. To be noted: rotenone-resistant activity in AtNDA2-transfected control fibroblasts, DCQ 50 μM, rotenone 8 μM, KCN 650 μM, 10 mM KH2PO4 pH 7.2, BSA, 37 °C.

B1: AtNDA2 (Arabidopsis thaliana) (protein)
chain: SPAKIPNDVDRSQYSGLPPTREGEKPRVVVLGSGWAGCRLMKGIDTNLYDVVCVSPRNHMVFTPLLASTCVGTLEFRSVAEPISRIQPAISREPGSFFFLANCSRLDADAHEVHCETLTDGLNTLKPWKFKIAYDKLVIASGAEASTFGIHGVMENAIFLREVHHAQEIRRKLLLNLMLSDTPGISKEEKRRLLHCVVVGGGPTGVEFSGELSDFIMKDVRQRYAHVKDDIHVTLIEARDILSSFDDRLRRYAIKQLNKSGVRFVRGIVKDVQSQKLILDDGTEVPYGLLVWSTGVGPSPFVRSLGLPKDPTGRIGIDEWMRVPSVQDVFAIGDCSGYLETTGKPTLPALAQVAEREGKYLANLLNAIGKGNGGRANSAKEIELGVPFVYKHLGSMATIGRYKALVDLRESKDAKGISMTGFVSWFIWRSAYLTRVISWRNRFYVAINWFTTFVFGRDISRI
notes: lentiviral expression in human control fibroblasts (NHDF); permeabilised cells
The term Km denotes the substrate concentration at which the rate is half of its maximum. In the case of B1, the Km was found to be 9.7 ± 3.3 µM.
